Results from article PMC10687025, “Endosomal Arl4A attenuates EGFR degradation by binding to the ESCRT-II component VPS36” (Nature Communications, 2023).

B1: His-tagged Arl4A T51N [not stated] / GST-VPS36 (201–386) [not stated] (parent complex)
chain 1: MGNGLSDQTSILSNLPSFQSFHIVILGLDCAGKTTVLYRLQFNEFVNTVPNKGFNTEKIKVTLGNSKTVTFHFWDVGGQEKLRPLWKSYTRCTDGIVFVVDSVDVERMEEAKTELHKITRISENQGVPVLIVANKQDLRNSLSLSEIEKLLAMGELSSSTPWHLQPTCAIIGDGLKEGLEKLHDMIIKRRKMLRQQKKKR
chain 2: KIKDKQGDITEDETIRFKSYLLSMGIANPVTRETYGSGTQYHMQLAKQLAGILQVPLEERGGIMSLTEVYCLVNRARGMELLSPEDLVNACKMLEALKLPLRLRVFDSGVMVIELQSHKEEEMVASALETVSEKGSLTSEEFAKLVGMSVLLAKERLLLAEKMGHLCRDDSVEGLRFYPNLFMTQS
B2: untagged Arl4A T51N (pSG5) [not stated] / VPS36-WT-Myc [not stated] (parent complex)
chain 1: B1 chain 1
chain 2: MDRFVWTSGLLEINETLVIQQRGVRIYDGEEKIKFDAGTLLLSTHRLIWRDQKNHECCMAILLSQIVFIEEQAAGIGKSAKIVVHLHPAPPNKEPGPFQSSKNSYIKLSFKEHGQIEFYRRLSEEMTQRRWENMPVSQSLQTNRGPQPGRIRAVGIVGIERKLEEKRKETDKNISEAFEDLSKLMIKAKEMVELSKSIANKIKDKQGDITEDETIRFKSYLLSMGIANPVTRETYGSGTQYHMQLAKQLAGILQVPLEERGGIMSLTEVYCLVNRARGMELLSPEDLVNACKMLEALKLPLRLRVFDSGVMVIELQSHKEEEMVASALETVSEKGSLTSEEFAKLVGMSVLLAKERLLLAEKMGHLCRDDSVEGLRFYPNLFMTQS

Variants of: B1
Assay: GST pull-down with densitometric quantification; parent: 1; read off a plot
In the case of chain 2 L152A, chain 2 K154A, chain 2 E155A, chain 2 R156A, the ratio to parent is reported as roughly 0.09.
With chain 2 L137A, chain 2 T138A, chain 2 S139A, chain 2 E140A, chain 2 E141A the ratio to parent was roughly 0.22.
For chain 2 F142A, chain 2 K144A, chain 2 L145A, chain 2 V146A, the ratio to parent was roughly 0.31.

Variants of: B2
Assay: co-immunoprecipitation (Myc-Trap) with densitometric quantification; HeLa cell lysates; parent: 1; read off a plot
Work on chain 2 L352A, chain 2 K354A, chain 2 E355A, chain 2 R356A yielded a ratio to parent of roughly 0.54.
